Source: article PMC3824080

Molecular target: T1, Human cytosolic aspartyl-tRNA synthetase (human), P14868
T1 chain: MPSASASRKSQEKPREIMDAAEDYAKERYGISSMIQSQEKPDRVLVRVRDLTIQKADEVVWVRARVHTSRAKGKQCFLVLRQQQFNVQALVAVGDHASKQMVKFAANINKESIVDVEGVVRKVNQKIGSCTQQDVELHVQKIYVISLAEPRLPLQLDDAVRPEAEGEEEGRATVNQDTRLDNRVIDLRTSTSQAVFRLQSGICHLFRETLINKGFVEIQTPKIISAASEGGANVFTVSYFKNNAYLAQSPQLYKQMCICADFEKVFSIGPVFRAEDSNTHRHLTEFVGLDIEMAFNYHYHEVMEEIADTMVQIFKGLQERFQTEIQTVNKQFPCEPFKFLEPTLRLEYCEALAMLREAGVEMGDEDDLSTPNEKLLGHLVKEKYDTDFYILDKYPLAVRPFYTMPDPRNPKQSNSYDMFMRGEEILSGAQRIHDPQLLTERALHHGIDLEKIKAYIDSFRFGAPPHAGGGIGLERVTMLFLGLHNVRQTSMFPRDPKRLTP
Assay: crystal structure
Conditions: remark: other sources report otherwise

- stoichiometry N: 2
B1: Human cytosolic aspartyl-tRNA synthetase, P14868 1-501 (enzyme)
chain: T1 chain
